Source: patent publication US20220249640A1 (published 2022)

Assays:
[1] = target: T1, PD-1 (soluble, biotinylated, on sensors or coated on plates) (human, UniProt Q15116 25-167, biotinylated (avi tag, Avidity's biotinylation kit) in the Octet assays); test: ELISA; variable antigen coating
[2] = target: T1, PD-1 (soluble, biotinylated, on sensors …); test: ELISA; constant antigen coating

T1 sequence (Q15116 25-167): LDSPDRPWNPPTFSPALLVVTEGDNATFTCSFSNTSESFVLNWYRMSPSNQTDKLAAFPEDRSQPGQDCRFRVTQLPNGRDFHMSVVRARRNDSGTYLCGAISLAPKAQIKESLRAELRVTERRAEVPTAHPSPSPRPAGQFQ

B1: P4-B3 IgG1 wild type monomer (antibody, V domains shown)
VH: QVQLVQSGGGLVQPGRSLRLSCAASGFTFDDYAMHWVRQAPGKGLEWVSGISWNSGSIGYADSVKGRFTVSRDNAKNSLYLQMNSLRAEDTAVYYCASDYGDKYYYYGMDVWGKGTTVTVSS
VL: QPGLTQPPSASGTPGQRVTISCSGSSSNIGSNTVNWYQQFPGKAPKLLIFNDNQRPSGVPDRFSASKSGTSASLAISGLQSEDEADYYCAAWDGGLNGRGVFGGGTKLTVLG
- EC50 [1]: 0.514 µg/mL
- EC50 [2]: 0.0407 µg/mL
